In the DeepSol protein solubility set:

Test: soluble on expression in E. coli; label from the status in PepcDB or PDB records

Row | Sequence | soluble on expression in E. coli
1 | MGSDKIHHHHHHMRDNMSRLEDLEAFIHIAESGSLTRAATRLNRSLQAVSRSLTSLEVDVGLQLVHRTTRHSALSEAGQAFYRRVKPAVLEIREAQLEAAGRRTGPSGILRVGAPMLFGPDFLVPIVAEYIESYPQAEVDLSLTDAFVDLASKGIDVVVRIADLPDSNLQSKRLGALRRVVFGAPSYFARNGRPEHPAELRQHACIVRTIGNRPGQWAFQIDGKRRMVGVRGSFRSNAMAAIYSAVRSGLGLGYSPLWQIRHLVDAGQVEIVLQEFEPKPVPIHALWQESTRPPAKVRAFVDLLAMRLRLDDL | not soluble
2 | MAHHHHHHMASEEPLNEIPGECPTPGDLGHAGWDVLHTAGAVYPYKPSPLQQEAFRSFLYSWSHVYACSHCSYHMRRYLKRNPPVVTDKLALNRYLCEFHNTVNKNIAKPVYNCDPMVVLRRWHPTFPDMEDQPTIEEQIAEQRRLEQAEAQKQKEKELQQKQVQTSSLGDMKASRERLVGRWRSEKSESHEYANNNPSSVGAFATGWSASSRQHENAGDAAAKSAPAPLAESREKRWWIFGKNGSGDKNAGFSSTTGTPSKVNSSGGGSNSGGMNGSLDDDEASVMAILKRLKACMVYCPDKDEKSNSA | not soluble
3 | GSMTEETHPDDDSYIVRVKAVVMTRDDSSGGWFPQEGGGISRVGVCKVMHPEGNGRSGFLIHGERQKDKLVVLECYVRKDLVYTKANPTFHHWKVDNRKFGLTFQSPADARAFDRGVRKAIEDLIE | soluble
4 | MQQLINSLFMEAFANPWLAEQEDQARLDLAQLVAEGDRLAFSTDSYVIDPLFFPGGNIGKLAICGTANDVAVSGAIPRYLSCGFILEEGLPMETLKAVVTSMAETARAAGIAIVTGDTKVVQRGAVDKLFINTAGMGAIPANIHWGAQTLTAGDVLLVSGTLGDHGATILNLREQLGLDGELVSDCAVLTPLIQTLRDIPGVKALRDATRGGVNAVVHEFAAACGCGIELSEAALPVKPAVRGVCELLGLDALNFANEGKLVIAVERNAAEQVLAALHSHPLGKDAALIGEVVERKGVRLAGLYGVKRTLDLPHAEPLPRIC | not soluble
5 | MATSNLLKNKGSLQFEDKWDFMHPIVLKLLRQESVTKQQWFDLFSDVHAVCLWDDKGSSKIHQALKEDILEFIKQAQARVLSHQDDTALLKAYIVEWRKFFTQCDILPKPFCQLEVTLLGKQSSNKKSNMEDSIVRKLMLDTWNESIFSNIKNRLQDSAMKLVHAERLGEAFDSQLVIGVRESYVNLCSNPEDKLQIYRDNFEKAYLDSTERFYRTQAPSYLQQNGVQNYMKYADAKLKEEEKRALRYLETRRECNSVEALMECCVNALVTSFKETILAECQGMIKRNETEKLHLMFSLMDKVPNGIEPMLKDLEEHIISAGLADMVAAAETITTDSEKYREQLDTLFNRFSKLVKEAFQDDPRFLTARDKAYKAVVNDATIFKAENLYFQ | soluble
6 | MSLSQRTDCSLARRSSTVRKQDSSQAIPLVVESCIRFISRHGLQHEGIFRVSGSQVEVNDIKNAFERGEDPLAGDQNDHDMDSIAGVLKLYFRGLEHPLFPKDIFHDLMACVTMDNLQERALHIRKVLLVLPKTTLIIMRYLFAFLNHLSQFSEENMMDPYNLAICFGPSLMSVPEGHDQVSCQAHVNELIKTIIIQHENIFPSPREEGHHHHHH | soluble
7 | MFYDLAIGIYDLLVHLAAPFSRKPRKMMKGHWVVYDLLRQQVEKDERYIWFHAASLGEFEQGRPLIESIRERYPDYKILQTFFSPSGYEVRKNYRGADIVCYLPFDKPRNVKKFLDIVNPCMAFFIKYEFWKNYLDELHKRRIPVYSVSSIFRKDQIFFKWYGGTYRNVLKDFDHLFVQNEASKRFLAKIGITRVTVVGDTRFDRVLQIREQAKELPLVEQFKNGAFTFVAGSSWGPDEDLFIEYFNSHPEMKLIIAPHVIDENHLVEIIGKLKRPSVRYTRADEKNVRKADCLIIDCFGLLSSIYRYGEIAYIGGGFGVGIHNTLEAAVYGIPVIFGPKYQKFMEAMQLIEAGGAYSIKDYNELKTLLDRLLTDEAFLRKTGTNAGNYVIGNSGATEKVLHMINFLEHHHHHH | not soluble
8 | GPGSMLRCNISQRVPTHPVVSVKSGLVFERSLVEKYVDEHGRCPVTGDPLRKEDLITAQGAAPDASIASSGSLGAASVPTLLERLQVEWEGVALEQFSLRQQVTQLQLELAHALQQYDAACRVIARLSKELDSLRGGKAVAAEETDKGPAVVVVPAPVLRRMDAAEAAERQARKQRKAAAGSTAATPSQLTEEAQWVATPSSSASASSARSAVRVAAAADASSSGVFVSAVTGDHAIVRYSPDGFSEEARGIGHTATVHTLASQPGDILLSAAEDLTVRVWSTKGAALTVMHTLRYASGVVAMSQRTVGGAYMLCGAGDGVLTLSDLESGAHVVATAPLTLDTTSGALTCVELHPYASLAAVAFQPTELQLWDAREMRADTFISHVRGTAPRTHICSASFSADCVSLAAGLTDGSVYVWDLRQVLAPVAVLPPSADAVPATVRYAPDGRSLVVGGHGVTLYDCARLSASSTAVEAVATAGLKASAVCDVCWTTSGTDVLCGSVDGVVRLYSTAAGAT | soluble
9 | METLTLETPEARAETRTVLHVGCGAANPAKLPGDVFPAGDWRELRLDIDPGVAPDILASITGMPMVADGSVDAVWSSHNLEHLRPHEVPLALAEFHRVLRPGGFLLATLPDLQAVALLVAQGLLEEPAYVSALGPIAPLDILYGFRPAIAEGNDFMAHRTGFTAASLARHLGAAGFAEITVQTDGRFALWARAVRPA | not soluble
10 | MGSDKIHHHHHHMPAFNQHDLSHFVGKHLIYTYDNGWNYELYVKNANTIDYRIHSGIVGNRWVKDQQVYIVQVAREVYKISWTEPTGTDVSLIANIADKVFHGTIFFPRWVINNPEKTVCFQNEHIAEMEAYRDAGPAYPTEVIDEFATITFIRDCGENNNDVINCPASELPADFPACLKK | not soluble
11 | SRVSVTDYKRLLDSGAFHLLLDVRPQVEVDICRLPHALHIPLKHLERRDAESLKLLKEAIWEEKQGTQEGAAVPIYVICKLGNDSQKAVKILQSLSAAQELDPLTVRDVVGGLMAWAAKIDGTFPQY | soluble
12 | MGSDKIHHHHHHMVREPASTLLPPTSPATPAPHRLLIGRRGMVPTGANVIWKIQSGLVRSSTWGEEGDMISLGLWGPGDLIGRPLSCLDPYELECLTAVEVVAVSDPALESHESLVRSLRYTERLLSITRLRRAEAKLASLLGWIGERFGQPGATGWEIDLRRIPLTHQVIAELSGSTRVTTTRLLGEFRQAGRIHRRDRALIVRYPETLYPPARLSA | not soluble
13 | MNDLEKKFYELPELPYPYDALEPHISREQLTIHHQKHHQAYVDGANALLRKLDEARESDTDVDIKAALKELSFHVGGYVLHLFFWGNMGPADECGGEPSGKLAEYIEKDFGSFERFRKEFSQAAISAEGSGWAVLTYCQRTDRLFIMQVEKHNVNVIPHFRILLVLDVWEHAYYIDYRNVRPDYVEAFWNIVNWKEVEKRFEDIL | soluble
14 | MRLEIAEKYMAEAYEYLKKGDTIQASGKAYKVAEEIVKAIKFLISKLIGQDVGVISPYRTQVRKLDQELANYKPYVEVNTVDAFQGREKDVIIFSVTATNGLRFVTNRRRLNVAFTRPRYKLIVLGNENSIMSCQMTIC | soluble
15 | TADNNSMPHGAVSSYAKLVQNQTPEDILEEFPEIIPLQQRPNTRSSETSNDESGETCFSGHDEEQIKLMNENCIVLDWDDNAIGAGTKKVCHLMENIEKGLLHRAFSVFIFNEQGELLLQQRATEKITFPDLWTNTCCSHPLCIDDELGLKGKLDDKIKGAITAAVRKLDHELGIPEDETKTRGKFHFLNRIHYMAPSNEPWGEHEIDYILFYKINAKENLTVNPNVNEVRDFKWVSPNDLKTMFADPSYKFTPWFKIICENYLFNWWEQLDDLSEVENDRQIHRML | soluble
16 | MGSDKIHHHHHHMITFIGHVSKDVNVVDGKREIAYGGGVVMGAITSSLLGVKTKVITKCTREDVSKFSFLRDNGVEVVFLKSPRTTSIENRYGSDPDTRESFLISAADPFTESDLAFIEGEAVHINPLWYGEFPEDLIPVLRRKVMFLSADAQGFVRVPENEKLVYRDWEMKEKYLKYLDLFKVDSREAETLTGTNDLRESCRIIRSFGAKIILATHASGVIVFDGNFYEASFRSWSLEGRTGRGDTCTAAFLVGFVFKKMSIEKATKFAAAVTSVKMRHPGPLRREDLEAISGDQYF | soluble
17 | SLGHWQLASKPTVLKGLPASTGVAIGEFWFDNTQPSLSDVFPSSTLDKEREQELLLVAIERALNDFRRMRKKFDSEINKDALAIFDLFTHLLNDPMLRGDLKKQIEKGDRADWALRQVVETYSNRFARMSDVYLRERAQDIRELGQRLLYFLHNSEQENAAIDRPIILVANELTATLLASVPKEHLLAVVSLEGGANSHAAILSRALGVPAVMGANINTDVVNGKLGIVDGYTGEIFLEPNRQLLREYRSLVSEESELFAMVNKDLA | not soluble
18 | MVKHIWDSERAAQLPKGVEELVYRSNLIGSDRTVCNWGGGNTSMKTTEKDFRGREIEVMWVKGSGSDLATMKAHNFSGLKLDDIRPLIKRDQMPDEEMVDYLSHCMIDSKHPRPSIETLLHAFLPYKHVDHTHPDAIISICCADNGKQIAEDIYGNRFVWVPYVRPGFTLSKMIAEGVANNPHAELVLMEKHGLVTWGETSETCYQKTISIIQEAEQYINDRINQHEVFGGKRYQPLPEDKRKQILAGIMPVIRGAVSEEKKMILSYDDHDDVLEFVNSVQAPALSQIGAACPDHLVHTKRVPLYIDWNPETQDVHKLADLIKSGVETFTSEYQAYFTRNQQDGDQIFESAPRVILIPGIGMVNTGKSYAMSKVSGALYRRAIAVMKGATALGQFVSLHENESYHVEYWPLELYKLTLAPPEAEFSRKVALITGGAGGIGSAACRRFAAEGGHVIVADLNIEGAQKIAGEINDAYGKGRAMAVKMDVTKEEDVQSAFERAALAYGGIDIVVNNAGLATSSPFDETSLKEWNLNMNVLGTGYFLVAREAFKQMKHQNRGGSMVFVGSKNSVYAGKNASAYSSVKALETHLARCIAAEGGEFGIRVNSVLPDAVLQGSAIWGSSWREERAAAYGIEPDQLEEHYRKRTALLVNIYPEDIAEAIAFFASSKAEKTTGCMITVDGGVPAAFTR | not soluble
19 | MSLSEEKWAIITGADGGMGTEITRAVAEAGYHIIMACYRPSKAEPIRQRLVNETGNANMEVMAVDLSSMASTASFADRIVERHLPVSLLMNNAGTMETGLHITDDGFERTVSVNYLGPYLLTRKLLPALTCGARIVNMVSCTYAIGHLDFPDFFRQGRKGSFWRIPVYSNTKLALMLFTIELSERLREKGITVNAADPGIVSTDIITMHQWFDPLTDIFFRPFIRTPKKGASTAVGLLLDEAVAGVSGQLYASSHRKQLSEKYLCHVQQKQLWQETEQALERWLKEGHHHHHH | soluble
20 | MSLGRYCTDTEWTWFIPGKSPIKTDTIFREVAINGKTGLRTCHIDENTRFEVYEFWPSDLLRIFRRAGIQRHTPPFFEPGCALSGNSGISPQITSPQAGVSYIVHANTQSNKIIPLTAVTDAGIAHLYWFINESFVAETKSDEPYLWQAKPGKYVVRVVDDRGLSDARDITIQMVSEGHHHHHH | soluble
21 | MQVSGSSGNRIWDANLSQNLTYTWTPQTYSGFYYDLDTGEGSENMTIQLTEGSRSVQRNGLQYETRPIETNFEYGNWGSYQVIGFMAERYFAGYTENSNFVNDDISVISDGQLSKILIDSDDRKSLYTGSSLILEEGYSLNIVEVDVNGNTVWVQLEKDGDVIDNGFLSSNSNYVYETDLGDADDVPLIAVHLAQIFRGTETNAIFVEGIFQISDEYVQIENGDRFGKMEISSTSSSGIIMRNRDSFTLGRGDTVDIMGKLSFVVADSSELRFAPIVEISEPGTYELRLEHHHHHH | not soluble
